We go through twelve molecules from patent US20230192860A1 (Bristol-Myers Squibb, published 2023).

Experiment [1] concerns the target T1, monovalent hVISTA-ECD with polyhistidine tail (SEQ ID NO: 325) (human, UniProt Q9H7M9 33-193).
T1 construct: also called hVISTA-ECD 6-His tag; human VISTA
Put plainly: SPR, mAb captured on Protein A chip, hVISTA injected, PBST pH 6.0, 37 C. (In general: In SPR one partner is held on a chip, and binding of the other changes the refractive index at the surface.)

The target of experiment [2] is T1, monovalent hVISTA-ECD with …. Put plainly: SPR, mAb captured on Protein A chip, hVISTA injected, PBST pH 7.4, 37 C.
In experiment [3] the target is T2, monovalent hVISTA-ECD (amino acids 32-193 of SEQ ID NO: 1 with a 7xHis tail) (human, UniProt Q9H7M9 33-193).
T2 construct: analyte of the SPR assays; also called huVISTA-His; human VISTA-ECD
In words: SPR 37C, Ab on Protein A, hVISTA-ECD 50-5 nM, pH 6.0, average. The method, then: (§1) Binding of several preparations of each of the ‘029 progeny clones and of the parent ‘029 antibodies, formatted as IgG1.3 antibodies, to human VISTA at pH 6.0 and 7.4 was measured by Surface plasmon resonance (SPR). SPR analysis was performed to measure koff and KD binding affinity measurements for VISTA Abs at acidic and neutral pHs using a Biacore® T100 instrument (GE Healthcare). […] Antibodies were diluted to 25 nM in PBST pH 7.4, and were captured across active biosensor flow cells at 5 ul/min for 60 seconds. A concentration series of 50 - 5 nM monovalent hVISTA-ECD (SEQ ID NO: 325) was prepared in pH 7.4 and 6.0 running buffers, and was injected over the captured antibodies at 40 ul/min to measure association and dissociation. Two 15 second injections of 10 mM glycine pH 1.5 were used to regenerate the Protein A capture surface between assay cycles. Rate constants ka (kₒₙ) and kd (koff) were derived from reference flow cell and 0 nM blank-subtracted sensorgrams, and were fit to a 1:1 binding model in Biacore® T200 Evaluation Software v.2.0. The affinity constant, KD was calculated as the ratio of rate constants koff/kₒₙ for each VISTA antibody.

Experiment [4] deals with T2, monovalent hVISTA-ECD (amino acids …). In words: SPR 37C, Ab on Protein A, hVISTA-ECD 50-5 nM, pH 7.4, average. The method, then: as §1
Experiment [5] deals with T3, hVISTA-ECD 6-His tag (human, UniProt Q9H7M9 33-193).
T3 construct: also called monovalent hVISTA-ECD; human VISTA
In words: SPR, Ab on Protein A, hVISTA analyte, pH 6.0.

In experiment [6] the target is T3, hVISTA-ECD 6-His tag. Put plainly: SPR, Ab on Protein A, hVISTA analyte, pH 6.45.
Experiment [7] addresses T3, hVISTA-ECD 6-His tag. In words: SPR; KD at pH 6.45 over KD at pH 6.0 (head prints 7.4).
Experiment [8] deals with T3, hVISTA-ECD 6-His tag. Put plainly: SPR; kd at pH 6.45 over kd at pH 6.0 (head prints 7.4). How it is done:
Further binding kinetic experiments were performed at various pHs on VISTA antibodies described herein by SPR as generally described in Example 9 above. Antibodies were normalized to 50 nM concentration in PBST pH 7.4 and captured on a Protein A CM5 chip (ID 4931) by injecting for 45 seconds at a 5 µL/min flow rate. An 8-point human VISTA titration ([…]) was prepared in PBST at pH 7.4, 6.9, 6.45, and 6.0. Titrations were injected over the captured antibodies for 180 seconds at 30 µL/min. Sensorgrams were fit to a 1:1 binding model in T200 evaluation software and the kinetic constants were reported.
Each table reports the data at one of the four tested pHs (7.4, 6.9, 6.45, and 6.0, respectively). The 8-point hVISTA titration used in these assays was chosen to provide increased confidence in kinetic values reported at neutral pH conditions. A relatively stringent cutoff for non-binding was applied in this assay. Certain progeny of P1-061029 antibody (P1-068757, ‘759, ‘765, ‘771, and ‘775) show no binding to hVISTA at micromolar concentrations at pH 7.4, while ‘761 and ‘767 show no binding to hVISTA at 100 nM at pH 7.4 but do show binding to hVISTA at micromolar concentrations.

T3 sequence (Q9H7M9 other isoform, or with tags, fused parts or gaps limits assumed): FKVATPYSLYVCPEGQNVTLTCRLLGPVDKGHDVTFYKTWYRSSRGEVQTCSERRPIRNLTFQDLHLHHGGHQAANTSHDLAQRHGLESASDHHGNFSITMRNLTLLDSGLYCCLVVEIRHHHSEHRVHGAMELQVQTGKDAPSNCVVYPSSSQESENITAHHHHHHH
T1 sequence (Q9H7M9 other isoform, or with tags, fused parts or gaps limits assumed): as above
T2 sequence (Q9H7M9 other isoform, or with tags, fused parts or gaps limits assumed): as above

B1: P1-077893 (P1-068748 D57K D100S) (antibody, V domains shown)
VH: QVQLVESGGGVVQPGRSLRLSCAASGFTFSHHAMHWVRQAPGKGLEWVAIIWYDGSNKDYADSVKGRFTISRDNSKNTLYLQMNSLRAEDTAVYYCARDSGFYSSYYFDYWGQGTLVTVSS
VL: EIVLTQSPATLSLSPGERATLSCRASQSVSSSYLAWYQQKPGQAPRLLIYDASNRATGIPARFSGSGSGTDFTLTISSLEPEDFATYYCQQYNSYPYTFGQGTKLEIK
notes: Reversion mutant of P1-068748 (Kabat names); the antibody was captured on a Protein A chip, so an Fc was present
In experiment [1], B1 gave a Kd of 0.43 nM, a koff of 0.00058 s⁻¹ and a kon of 1.4e+06 M⁻¹ s⁻¹. In experiment [2], this molecule displayed a Kd of 4.7 nM, a koff of 0.0019 s⁻¹ and a kon of 400000 M⁻¹ s⁻¹.

B2: P1-069063 (antibody, human IgG1, kappa, V domains shown)
VH: EVQLVESGGGLVQPGKSLRLSCAASGFTLEDYAMHWVRQAPGKGLEWVSGINWNSAEIGYADSVKGRFTISRDNAKNSLYLQMNSLRTEDTALYYCAKVPGYSGGWIDADDEWGQGTMVTVSS
VL: not shown
notes: IgG1.3
In experiment [3], B2 came in with a Kd of 2.4 nM, a koff of 0.0044 s⁻¹ and a kon of 1.9e+06 M⁻¹ s⁻¹. Moreover, in experiment [4], the Kd stood at 230 nM, the koff was found to be 0.027 s⁻¹ and the kon was 120000 M⁻¹ s⁻¹.

B3: P1-069077 (antibody, human IgG1, kappa, V domains shown)
VH: EVQLVESGGGLVQPGKSLRLSCAASGFTLEDEAMHWVRQAPGKGLEWVSGINWNSDEIGYADSVKGRFTISRDNAKNSLYLQMNSLRTEDTALYYCAKVPGYSGGWIDAFDVWGQGTMVTVSS
VL: not shown
notes: IgG1.3
For B3, in experiment [3], binding was put at a Kd of 0.19 nM, the koff was found to be 0.00012 s⁻¹ and the kon was found to be 630000 M⁻¹ s⁻¹. In experiment [4], the Kd is 31 nM, the koff amounted to 0.0019 s⁻¹ and the on-rate (kon) was 60000 M⁻¹ s⁻¹.

B4: P1-068771 (antibody, human IgG1, kappa, V domains shown)
VH: EVQLVESGGGLVQPGKSLRLSCAASGFTLEDEAMHWVRQAPGKGLEWVSGINWNSHEIGYADSVKGRFTISRDNAKNSLYLQMNSLRTEDTALYYCAKVPGYSGGWIDAEDDWGQGTMVTVSS
VL: not shown
notes: also called P1-068771-10; 029 progeny
In the case of B4, in the experiment with hVISTA-ECD 6-His tag [5], the Kd was determined as 32 nM, the koff came to 0.01 s⁻¹ and the kon was 320000 M⁻¹ s⁻¹. In the experiment with hVISTA-ECD 6-His tag [6], this molecule came in with a Kd of 370 nM, a koff of 0.022 s⁻¹ and a kon of 61000 M⁻¹ s⁻¹. In the experiment with hVISTA-ECD 6-His tag [7], the “7.4 KD/ 6.0 KD” value was 11.6. For the same molecule, the “7.4 kd/ 6.0 kd” value with hVISTA-ECD 6-His tag [8] amounted to 2.2.

B5: P1-068775 (antibody, human IgG1, kappa, V domains shown)
VH: EVQLVESGGGLVQPGKSLRLSCAASGFTLEDEAMHWVRQAPGKGLEWVSGIDWNSEEIGYADSVKGRFTISRDNAKNSLYLQMNSLRTEDTALYYCAKVPGYSHGWIDAEDDWGQGTMVTVSS
VL: not shown
notes: also called P1-068775-8; 029 progeny
In the experiment with hVISTA-ECD 6-His tag [5], B5 had a Kd of 77 nM, a koff of 0.009 s⁻¹ and a kon of 120000 M⁻¹ s⁻¹. Also, in the experiment with hVISTA-ECD 6-His tag [6], the affinity, expressed as Kd, was 220 nM; the koff is 0.017 s⁻¹; the kon turned out to be 77000 M⁻¹ s⁻¹. In addition, in the experiment with hVISTA-ECD 6-His tag [7], the “7.4 KD/ 6.0 KD” value came to 2.8. The “7.4 kd/ 6.0 kd” value in the experiment with hVISTA-ECD 6-His tag [8] was 1.8.

B6: P1-069069 (antibody, human IgG1, kappa, V domains shown)
VH: EVQLVESGGGLVQPGKSLRLSCAASGFTLDDYAMHWVRQAPGKGLEWVSGINWNSEEIGYADSVKGRFTISRDNAKNSLYLQMNSLRTEDTALYYCAKVPGYSGGWIDADDVWGQGTMVTVSS
VL: not shown
notes: IgG1.3
In experiment [3], B6 returned a Kd of 0.86 nM, a koff of 0.0012 s⁻¹ and a kon of 1.4e+06 M⁻¹ s⁻¹. In experiment [4], this molecule had a Kd of 84 nM, a koff of 0.0075 s⁻¹ and a kon of 90000 M⁻¹ s⁻¹.

B7: P1-069067 (antibody, human IgG1, kappa, V domains shown)
VH: EVQLVESGGGLVQPGKSLRLSCAASGFTLDDYAMHWVRQAPGKGLEWVSGINWNSEEIGYADSVKGRFTISRDNAKNSLYLQMNSLRTEDTALYYCAKVPGYSGGWIDADDEWGQGTMVTVSS
VL: not shown
notes: IgG1.3
As to B7, in experiment [3], the Kd turned out to be 2.7 nM, the koff was 0.0045 s⁻¹ and the kon worked out at 1.7e+06 M⁻¹ s⁻¹. In experiment [4], this molecule returned a Kd of 290 nM, a koff of 0.027 s⁻¹ and a kon of 100000 M⁻¹ s⁻¹.

B8: P1-068757 (antibody, human IgG1, kappa, V domains shown)
VH: EVQLVESGGGLVQPGKSLRLSCAASGFTLEDEAMHWVRQAPGKGLEWVSGINWNSEEIGYADSVKGRFTISRDNAKNSLYLQMNSLRTEDTALYYCAKVPGYSGGWIDAEDDWGQGTMVTVSS
VL: not shown
notes: also called P1-068757-9; 029 progeny
In the experiment with hVISTA-ECD 6-His tag [5], B8 registered an equilibrium dissociation constant (Kd) of 24 nM, a koff of 0.01 s⁻¹ and a kon of 420000 M⁻¹ s⁻¹. In the experiment with hVISTA-ECD 6-His tag [6], this molecule displayed a Kd of 140 nM, a koff of 0.018 s⁻¹ and a kon of 130000 M⁻¹ s⁻¹. Further, in the experiment with hVISTA-ECD 6-His tag [7], the “7.4 KD/ 6.0 KD” value worked out at 5.8. In addition, the “7.4 kd/ 6.0 kd” value with hVISTA-ECD 6-His tag [8] worked out at 1.7.

B9: P1-069065 (antibody, human IgG1, kappa, V domains shown)
VH: EVQLVESGGGLVQPGKSLRLSCAASGFTLEDEAMHWVRQAPGKGLEWVSGINWNSDDIGYADSVKGRFTISRDNAKNSLYLQMNSLRTEDTALYYCAKVPGYSGGWIDAFDVWGQGTMVTVSS
VL: not shown
notes: IgG1.3
For B9, in experiment [3], the Kd worked out at 0.38 nM, the koff turned out to be 0.00022 s⁻¹ and the kon turned out to be 570000 M⁻¹ s⁻¹. In experiment [4], this molecule had a Kd of 39 nM, a koff of 0.0023 s⁻¹ and a kon of 59000 M⁻¹ s⁻¹.

B10: P1-069075 (antibody, human IgG1, kappa, V domains shown)
VH: EVQLVESGGGLVQPGKSLRLSCAASGFTLEDYAMHWVRQAPGKGLEWVSGINWDSAEIGYADSVKGRFTISRDNAKNSLYLQMNSLRTEDTALYYCAKVPGYSHGWIDAEDVWGQGTMVTVSS
VL: not shown
notes: IgG1.3
On to B10, for which, in experiment [3], binding was put at a Kd of 0.22 nM, the koff came out at 0.00029 s⁻¹ and the kon stood at 1.3e+06 M⁻¹ s⁻¹. In addition, in experiment [4], the Kd was 18 nM, the koff came out at 0.0023 s⁻¹ and the kon was 130000 M⁻¹ s⁻¹.

B11: P1-068765 (antibody, human IgG1, kappa, V domains shown)
VH: EVQLVESGGGLVQPGKSLRLSCAASGFTDEDYAMHWVRQAPGKGLEWVSGINWNSEEIGYADSVKGRFTISRDNAKNSLYLQMNSLRTEDTALYYCAKVPGYSGGWIDAEDDWGQGTMVTVSS
VL: not shown
notes: also called P1-068765-10; 029 progeny
In the experiment with hVISTA-ECD 6-His tag [5], B11 returned a Kd of 29 nM, a koff of 0.0045 s⁻¹ and a kon of 150000 M⁻¹ s⁻¹. Besides, in the experiment with hVISTA-ECD 6-His tag [6], the Kd turned out to be 420 nM, the koff turned out to be 0.013 s⁻¹ and the kon is 31000 M⁻¹ s⁻¹. Further, in the experiment with hVISTA-ECD 6-His tag [7], the “7.4 KD/ 6.0 KD” value is 14.2. Besides, the “7.4 kd/ 6.0 kd” value with hVISTA-ECD 6-His tag [8] came to 2.8.

B12: P1-069071 (antibody, human IgG1, kappa, V domains shown)
VH: EVQLVESGGGLVQPGKSLRLSCAASGFTLEDEAMHWVRQAPGKGLEWVSGINWNSADIGYADSVKGRFTISRDNAKNSLYLQMNSLRTEDTALYYCAKVPGYSEGWIDAFDVWGQGTMVTVSS
VL: not shown
notes: IgG1.3
As to B12, in experiment [3], the Kd was 0.73 nM, the koff stood at 0.00051 s⁻¹ and the kon was found to be 700000 M⁻¹ s⁻¹. Further, in experiment [4], the Kd stood at 93 nM, the koff was 0.004 s⁻¹ and the kon was 43000 M⁻¹ s⁻¹.

By Kd is commonly meant the constant that tells how readily two partners part at equilibrium. For orientation: koff means the rate constant with which the complex falls apart. High values mean a short-lived complex, low ones a long-lived complex. As a reminder, the kon is the rate constant with which the complex forms. Read a high kon as fast association.
